Experiment [1] addresses T1, PDZ domain of the human MAST2 protein (MAST2-PDZ) (Homo sapiens, UniProt Q6P0Q8).
T1 sequence (Q6P0Q8 1101-1193 limits assumed): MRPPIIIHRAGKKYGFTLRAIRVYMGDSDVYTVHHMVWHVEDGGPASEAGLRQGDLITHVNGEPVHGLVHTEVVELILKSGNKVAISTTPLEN
Briefly: Isothermal Titration Calorimetry (ITC) with MAST2-PDZ. The class given is binding. As to conditions: 298 K, 50 mM Tris-HCl, 150 mM NaCl, pH7.5, read-out: Kd (μM) (dissociation constant) MAST2-PDZ.

Experiment [2] deals with T2, PDZ domain of the human PTPN4 protein (PTPN4-PDZ) (Homo sapiens, UniProt P29074).
T2 construct: the PDZ domain of the human PTPN4 protein
T2 sequence (P29074 517-589 limits assumed): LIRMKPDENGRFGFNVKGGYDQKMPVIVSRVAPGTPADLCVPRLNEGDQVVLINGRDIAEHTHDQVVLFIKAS
In words: ITC with PTPN4-PDZ. The class given is binding. As for the experimental part: The affinity of the polypeptides of the invention for the PDZ domain of the human PTPN4 protein is low, i.e., the constant of dissociation (KD) of the complex formed by the polypeptide of the invention with the PDZ domain of the human PTPN4 protein is high, in particular is more than 500 μM (for example as measured by ITC, in particular in the same conditions and with the same concentrations as for the MAST2-PDZ above).
ITC measurements were made using VP-ITC VP-ITC200 calorimeters (MicroCal). MAST2-PDZ was titrated at 298 K by injections of the polypeptides (25-45 consecutive aliquots of 5-7 μL at 6-min intervals). Raw data were normalized and corrected for heats of dilution of polypeptides. Equilibrium dissociation constants (KD) were determined performing nonlinear curve fitting of the corrected data to a model with one set of sites using the Origin7.0 software (OriginLab). All samples were prepared in a buffer containing 50 mM Tris-HCl, 150 mM NaCl, pH7.5. Data were recorded with MAST2-PDZ at an initial concentration of 30 μM and with peptide at initial concentrations ranging from 250 μM to 350 μM.

One may read the Kd as the free concentration of one partner at which half of the binding sites on the other are occupied at equilibrium, for simple one-to-one binding.

For the substance “ATT13: polypeptide ending with the MAST-2 binding domain […] (SEQ ID NO:235) (SWESHKSGGETRL; not fully specified)”, the dissociation constant (Kd) is 0.57 µM in experiment [1] and 160 µM in experiment [2].

Source of the values: US10227653B2, “High MAST2-affinity polypeptides and uses thereof” (INSTITUT PASTEUR, priority 2011, dated 2019).
